Assay results: patent US20220396614A1 (DEUTSCHES KREBSFORSCHUNGSZENTRUM, published 2022)

Target: Plasmodium falciparum circumsporozoite protein (PfCSP) on Pf NF54 salivary gland sporozoites (Plasmodium falciparum (NF54))
Test: cell-based or functional assay

B1: monoclonal antibody 2541 (antibody, V domains shown)
VH: QVQLVESGGGVVQPGRSLRLSCAASGFTFSSYGMHWVRQTTGKGLEWVAIIWHDGSKKYYADSVKGRLTISRDNSKNTLYLQMNSLRVEDTALYYCARVGDYSDFKYGAFDIWGQGTMVTVSS
VL: DIQMTQSPSTLSASVGDRVTITCRASQSISSWLAWYQQKPGKAPNLLIYKASTLESGVPSRFSGSGSGTEFTLTISSLQPDDFATYYCQQYNSYWTFGQGTRVEIK
IC50, in vitro Pf-traversal inhibition assay: < 1 µg/mL
